B1: Prelamin-A/C (Homo sapiens), P02545 (parent)
chain: METPSQRRATRSGAQASSTPLSPTRITRLQEKEDLQELNDRLAVYIDRVRSLETENAGLRLRITESEEVVSREVSGIKAAYEAELGDARKTLDSVAKERARLQLELSKVREEFKELKARNTKKEGDLIAAQARLKDLEALLNSKEAALSTALSEKRTLEGELHDLRGQVAKLEAALGEAKKQLQDEMLRRVDAENRLQTMKEELDFQKNIYSEELRETKRRHETRLVEIDNGKQREFESRLADALQELRAQHEDQVEQYKKELEKTYSAKLDNARQSAERNSNLVGAAHEELQQSRIRIDSLSAQLSQLQKQLAAKEAKLRDLEDSLARERDTSRRLLAEKEREMAEMRARMQQQLDEYQELLDIKLALDMEIHAYRKLLEGEEERLRLSPSPTSQRSRGRASSHSSQTQGGGSVTKKRKLESTESRSSFSQHARTSGRVAVEEVDEEGKFVRLRNKSNEDQSMGNWQIKRQNGDDPLLTYRFPPKFTLKAGQVVTIWAAGAGATHSPPTDLVWKAQNTWGCGNSLRTALINSTGEEVAMRKLVRSVTVVEDDEDEDGDDLLHHHHGSHCSSSGDPAEYNLRSRTVLCGTCGQPADKASASGSGAQVGGPISSGSSASSVTVTRSYRSVGGSGGGSFGDNLVTRSYLLGNSSPRTQSPQNCSIM
partner: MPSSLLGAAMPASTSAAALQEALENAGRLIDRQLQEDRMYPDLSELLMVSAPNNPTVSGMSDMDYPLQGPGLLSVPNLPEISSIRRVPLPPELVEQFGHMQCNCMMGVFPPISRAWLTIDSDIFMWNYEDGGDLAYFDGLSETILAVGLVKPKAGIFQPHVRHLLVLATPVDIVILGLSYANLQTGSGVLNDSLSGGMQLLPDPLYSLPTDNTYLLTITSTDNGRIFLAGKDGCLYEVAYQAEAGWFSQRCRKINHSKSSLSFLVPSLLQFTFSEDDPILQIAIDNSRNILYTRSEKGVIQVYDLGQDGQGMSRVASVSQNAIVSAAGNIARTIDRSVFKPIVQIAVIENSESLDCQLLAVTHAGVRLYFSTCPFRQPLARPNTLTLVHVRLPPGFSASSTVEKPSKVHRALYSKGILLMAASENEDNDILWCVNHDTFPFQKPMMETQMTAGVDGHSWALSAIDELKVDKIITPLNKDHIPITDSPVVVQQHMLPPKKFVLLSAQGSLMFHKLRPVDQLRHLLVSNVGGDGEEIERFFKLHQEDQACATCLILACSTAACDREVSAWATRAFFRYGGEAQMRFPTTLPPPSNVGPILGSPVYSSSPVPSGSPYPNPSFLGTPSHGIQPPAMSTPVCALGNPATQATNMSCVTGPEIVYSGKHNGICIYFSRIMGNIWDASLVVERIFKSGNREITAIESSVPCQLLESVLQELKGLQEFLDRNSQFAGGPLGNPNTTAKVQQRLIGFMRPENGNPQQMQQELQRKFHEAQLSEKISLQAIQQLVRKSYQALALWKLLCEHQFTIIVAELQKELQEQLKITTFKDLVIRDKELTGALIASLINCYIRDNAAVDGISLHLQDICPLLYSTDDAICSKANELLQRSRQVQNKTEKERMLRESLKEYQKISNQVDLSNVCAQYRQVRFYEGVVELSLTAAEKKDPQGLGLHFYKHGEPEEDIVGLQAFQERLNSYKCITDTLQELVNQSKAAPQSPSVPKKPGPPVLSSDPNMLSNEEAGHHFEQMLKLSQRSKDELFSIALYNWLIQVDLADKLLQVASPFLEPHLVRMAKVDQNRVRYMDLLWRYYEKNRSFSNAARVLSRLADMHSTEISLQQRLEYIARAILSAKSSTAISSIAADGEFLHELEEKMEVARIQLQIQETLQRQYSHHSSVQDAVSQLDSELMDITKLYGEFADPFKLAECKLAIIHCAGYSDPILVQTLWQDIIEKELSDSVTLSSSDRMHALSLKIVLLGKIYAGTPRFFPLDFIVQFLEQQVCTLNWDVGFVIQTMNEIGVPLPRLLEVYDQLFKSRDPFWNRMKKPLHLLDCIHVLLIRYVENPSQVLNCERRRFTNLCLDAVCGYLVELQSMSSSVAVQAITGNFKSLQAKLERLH

Variants of B1 are the subject of the first assay. Particulars: with nu155_human NUP155, O75694.
Consider R399C, for which the “effect of a mutation on the interaction” value is given as “decreasing interaction strength”.

Variants of B1 are the subject of a further assay. As to conditions: with nu155_human NUP155, O75694. This is another data set of the same source.
On to R399C, for which the “effect of a mutation on the interaction” value was “with no effect”.

The values are drawn from IntAct's records for PubMed 30488537.
